Substitutions are numbered along the chain they refer to.

B1: TM-15 (antibody, V domains shown)
VH: QVQLQQPGAEFVRPGASVKLSCKASGYTFTNYWITWVKQRPGHGLEWIGDIYPGSGNSNYNESFKRKATLTVDTSSSTAYMHLSSQTSEDSAVYFCARKAYGGFPYWGQGTLVTVSA
VL: DIQMTQSPASLSVSVGETVTITCRVSENIYNNLAWYQQKQEKSPQLLVFAATNLADGVPSRFSGSGSGTQFSLKINSLQSEDFGTYYCQHFWDTPFTFGSGTKLEIK
notes: mouse IgG (hybridoma)
B2: TM-14 (antibody, V domains shown)
VH: QVQLQQSGPELVRPGTSVKVSCKASGYAFTNYLIEWVKQRPGQGLEWIGVINPGGGNTDYSEKFKDKATLTADKSSNTAYIQLSSLTSEDSAVYFCARSPYSSYVGYAVDYWGQGTSVTVSS
VL: DIQMTQSPSSLSASLGERVSLTCRASQDIGSNLNWLQQEPDGTIKRLIYATSSLDSGVPKRFSGSRSGSDYSLTISSLESEDFVVYYCLQYASSPRTFGGGTRLEIK
notes: mouse IgG (hybridoma)
B3: TM-17 (antibody, V domains shown)
VH: QVQLQQSGAELIRPGTSVKVSCKASGYAFTDYLIEWVKQRPGQGLEWIGVINPGSGGTNYNEKFKGKAKLTADKSSSTAYMQLSSLTSEDSAVYFCVRSSYGVYVAYPMDYWGQGTSVTVSS
VL: B2 VL with V85D, R103K
B4: TM-13 (antibody, V domains shown)
VH: QVQLQQSGAELVKPGASVKMSCKASGYTFTTFPIEWMKQSHGKGLEWIGNFHPYNDDTKYNEKFKGKATLTVDKSSSTVYLDLSRLTSDDSAVYYCARYFYGGMDYWGQGTSVTVSS
VL: DIQMTQSPASLSVSVGETVTITCRASENIYSSLGWYQQKQGESPQLLVFAATNLADGVPSRFSGSGSGTQYSLKINSLQSEDFGTYYCQHLWSIPWTFGGGTRLEIK
B5: TM-12 (antibody, V domains shown)
VH: EVQLQQSGAELMRPGASVKLSCTASGFNIQDYYMYWVKQRPEQGLEWIGRIDPEDGDAEYAPKFQGKATMTADTSSNTAYLQLSSLTSEDTAVYYCSTRVIYDGYYRTMDCWGQGTSVTVSS
VL: DVLMTQIPLSLPVSLGDQASISCRSSQTIVHSNGNTYLEWYLKKPGQSPKLLIDKISNRFSGVPDRFSGSGSGTDFTLKISRVEAEDLGVYYCFQGSHVPYTFGGGTKLEIK
B6: TM-19 (antibody, V domains shown)
VH: DVQLQQSGAELVRPGASVKLSCTASGFNIKDYYMYWVKQRPEQGLEWIGRIDPEDGDTENAPKFRGMATMTADTSSNTAYLQLNSLTSEDTAVYYCTTRIGNLYHVMDYWGHGTSVTVSS
VL: B5 VL with I7T, T28S, K43Q, S48A, I56V, S57F, Y101F, G105S
B7: TM-18 (antibody, V domains shown)
VH: EVRLQQSGPELVKPGASVKISCKTSGYTFTDYYMNWVKQSHGKSLEWIVNINPNNGDAFYNQKFKGKATLTVDKSSNTAYLDLRSLTSEDSAVYYCAREGQLRLRRVYAMDYWGQGTSVTVSS
VL: DIVLAQSPASLAVSLGQRATISCRASKSVSISVYTYVHWYQQKPGQPPKLLIYLASNLESGVPARFSGSGSGTDFTLNIHPVEEEDAATYYCQHSRELPYTFGGGTKLEIK
B8: TM-9 (antibody, V domains shown)
VH: EVQLVESGGDLVKPGGSLKLSCVASGFTFSGYGMSWVRQTPDKRLEWVATISSGSFYIYYPDSVKGRLTVSRDNAKNTLYLQMSSLKSEDTAIYYCARQNFYYGCEDYWGQGTTLTVSS
VL: DIVMTQAAFSNPVTLGTSASISCRSSKSLLHSNGITYLYWYLQKPGQSPQLLIYQMSNLASGVPNRFSSSGSGTDFTLRISRVEAEDVGVYYCAQNLELPWTFGGGTKLEIK
B9: TM-21 (antibody, V domains shown)
VH: EVQLVESGGGLVKPGGSLKLSCAASGFTFSNYAMSWVRETPEKRLEWVAFISDGGGYIYYADNVKDRFTISRDNAKNNLYLQMRHLKSEDTAMYYCARDGGTGFTYWGQGTLVTVSV
VL: B8 VL with Y39F, N65D, A94V, W101Y
B10: TM-10 (antibody, V domains shown)
VH: QVQLQQSGAELVKPGASVKISCKGSGYAFSSYWMNWVKQRPGKGLEWIGQIYPGDGDTNYNGKFKGKATLTADKSSTTAYIHLSSLTSEDSAVYFCARWGHYDEAMDDWGQGTSVTVSS
VL: DVVMTQTPLSLPVSLGDQASISCRSSQSLVHSNGKTYLHWYVQKPGQSPKLLIYKISNRFSGVPDRFSGSGSGTDFTLKISRVEAEDLGVYFCSQITHVPWTFGGGTKLESK
B11: TM-11 (antibody, V domains shown)
VH: QVQLKQSGPGQVQPSQSLSITCTVSGFSLSDYGVHWVRQSPGKGLEWLGVIWNNGNTDYNAAFISRLSINKDNSKSQVFFKMTSLQADDTAIYYCVRSLRPLHFDYWGQGTTVTVSS
VL: DIVMTQSPSSLTMSVGQKVTMHCKSSQSLLNSNNLQNYLAWYQQKPGQSPTLLVYFASIRESGVPDRFIGSGSGTDFTLTISSVQAEDLADYFCQQHYNTPFTFGSGTKLEIR

The target in one experiment is T1, human TMEM106B (human, UniProt Q9NUM4 2-274).
T1 construct: full-length, transiently expressed on HEK293 cells, or natively expressed on HeLa, U251 and A549 cells (the cell is named under assay); also the source of the Pepscan peptides; also called huTMEM106B; huTMEM
The experiment is described as follows: FACS HEK+huTMEM 1.0 ug/ml.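 Also: binding of purified mouse IgG antibodies to HEK293 cells transiently expressing human TMEM106B, read by flow cytometry as median fluorescence intensity of live, propidium iodide-negative cells.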
With B1, the MFI came to 14300 MFI.

For B2, the MFI was found to be 680 MFI.

In turn, B3 displayed an MFI of 2620 MFI.

Turning to B4, the MFI stood at 67100 MFI.

On to B5, for which the MFI worked out at 77800 MFI.

Regarding B6, the MFI was found to be 66800 MFI.

B7 registered an MFI of 67300 MFI.

In turn, B8 returned an MFI of 62100 MFI.

B9 registered an MFI of 69400 MFI.

Take B10: the MFI stood at 44400 MFI.

In turn, B11 showed an MFI of 54600 MFI.

For a further experiment, the target named is T1, human TMEM106B. The experiment is described as follows: FACS A549 1 ug/ml.
Experimental: (§1) Purified anti-TMEM106B antibodies were evaluated for their binding affinity to various TMEM106B-expressing cell lines including HEK293 transiently transfected with human/cyno/mouse TMEM106B, as well as HeLa cells and A549 cells. Antibodies tested for this experiment were mouse IgGs purified from hybridoma supernatant. Affinity binding to cells was determined as follows. Briefly, 1×10\hat{ }5 cells were aliquoted per well in 96-well round bottom plates and incubated with 50 μL of purified anti-TMEM106B antibody at various concentrations (10× dilutions starting at 10 μg/ml) in FACS buffer (PBS+2% FBS+1 mM EDTA). […] Sorting was performed on a iQue (Intellicyt), with sort gates drawn to exclude dead (propidium iodide+) cells. Binding data was analyzed using median fluorescent intensity (MFI) and graphed in Prism. Values presented are MFI.
B1 returned an MFI of 650 MFI.

B2 had an MFI of 409 MFI.

B3 showed an MFI of 379 MFI.

Take B4: the MFI amounted to 1950 MFI.

For the molecule B5, the MFI stood at 3150 MFI.

Regarding B6, the MFI came to 3640 MFI.

With B7, the MFI was 2620 MFI.

B8 registered an MFI of 4880 MFI.

Turning to B9, the MFI amounted to 2030 MFI.

In turn, B10 returned an MFI of 663 MFI.

As to B11, the MFI came to 2870 MFI.

The next experiment concerns the target T1, human TMEM106B. The experiment is described as follows: FACS HEK+huTMEM 10 ug/ml.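 Also: flow cytometric binding of purified mouse IgG antibodies to HEK293 cells transiently expressing human TMEM106B, read as median fluorescence intensity on live cells with propidium iodide-positive cells excluded.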
Experimental: as §1
B1 showed an MFI of 63100 MFI.

In the case of B2, the MFI worked out at 1190 MFI.

Molecule B3 registered an MFI of 3960 MFI.

The molecule B4 displayed an MFI of 67500 MFI.

In the case of B5, the MFI was 75300 MFI.

B6 came in with an MFI of 79000 MFI.

Regarding B7, the MFI worked out at 71700 MFI.

For the molecule B8, the MFI is 56400 MFI.

Consider B9, for which the MFI came to 69400 MFI.

On to B10, for which the MFI stood at 36500 MFI.

Turning to B11, the MFI worked out at 57900 MFI.

In a further experiment the target is T1, human TMEM106B. The experiment is described as follows: FACS A549 10 ug/ml.
Experimental: as §1
In the case of B1, the MFI worked out at 1980 MFI.

Turning to B2, the MFI came out at 438 MFI.

Consider B3, for which the MFI is 425 MFI.

For B4, the MFI was 3890 MFI.

With B5, the MFI turned out to be 4950 MFI.

B6 came in with an MFI of 4960 MFI.

Molecule B7 returned an MFI of 5190 MFI.

In turn, B8 returned an MFI of 7090 MFI.

B9: the MFI is 4230 MFI.

In the case of B10, the MFI is 1090 MFI.

Molecule B11 registered an MFI of 5580 MFI.

The target in the next experiment is T1, human TMEM106B. The experiment is described as follows: FACS A549.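 Also: flow cytometry of cells incubated on ice for 1 h with hybridoma supernatant or purified antibody at 10 µg/mL, dead propidium iodide-positive cells gated out.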
Experimental: (§2) All cells were cultured in either T75 or T150 flasks. […] The enzyme was quenched by addition of fresh media, and the cells were then distributed into 96-well plates for FACS analysis.
(§3) FACS analysis was performed as follows. Each cell type was aliquoted in 96-well round bottom plates (2×10^5 cells per well), washed once with FACS buffer (PBS+2% FBS+1 mM EDTA), and incubated with 50 μL of hybridoma supernatant or purified antibody (10 μg/ml in FACS buffer) on ice for 1 hour. […] Following this secondary incubation, the cells were again washed 2× with ice-cold FACS buffer and resuspended in a final volume of 50 μL of FACS buffer+0.25 μl/well propidium iodide (Fisher Scientific #4BDB556463). Analysis was performed on a FACSCanto system (BD Biosciences) or iQue (Intellicyt), with sort gates drawn to exclude dead (i.e., propidium iodide positive) cells.
In turn, B1 returned an MFI of 938 MFI.

B2 came in with an MFI of 896 MFI.

Consider B3, for which the MFI came to 953 MFI.

Take B4: the MFI turned out to be 1260 MFI.

B5 had an MFI of 1940 MFI.

The molecule B6 returned an MFI of 1820 MFI.

B7 came in with an MFI of 1490 MFI.

On to B8, for which the MFI was found to be 1990 MFI.

As for B9, the MFI was found to be 1030 MFI.

As for B10, the MFI came out at 823 MFI.

B11 registered an MFI of 1340 MFI.

In another experiment the target is T1, human TMEM106B. The experiment is described as follows: FACS U251.
With B1, the MFI was 382 MFI.

B2 showed an MFI of 270 MFI.

For B3, the MFI is 305 MFI.

B4 registered an MFI of 787 MFI.

Take B5: the MFI was found to be 1330 MFI.

Take B6: the MFI came to 878 MFI.

With B7, the MFI is 874 MFI.

In the case of B8, the MFI is 1540 MFI.

B9 returned an MFI of 672 MFI.

B10: the MFI is 328 MFI.

As to B11, the MFI was found to be 866 MFI.

For a further experiment, the target named is T1, human TMEM106B. The experiment is described as follows: FACS HEK+huTMEM 0.1 ug/ml (2nd column so headed).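 Also: flow cytometry binding of purified anti-TMEM106B mouse IgG to HEK293 cells transiently transfected with TMEM106B, read as median fluorescence intensity on live (propidium iodide-negative) cells.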
Experimental: as §1
The molecule B1 showed an MFI of 584 MFI.

B2 gave an MFI of 314 MFI.

With B3, the MFI stood at 1150 MFI.

In the case of B4, the MFI amounted to 2900 MFI.

Molecule B5 had an MFI of 3340 MFI.

B6 came in with an MFI of 3340 MFI.

For the molecule B7, the MFI is 1740 MFI.

With B8, the MFI is 3940 MFI.

With B9, the MFI came out at 2350 MFI.

For B10, the MFI is 3360 MFI.

As for B11, the MFI came to 4280 MFI.

In another experiment the target is T2, mouse TMEM106B (mouse, UniProt Q80X71 2-275).
T2 construct: transiently expressed on HEK293 cells, or native on mouse Neuro2a cells; also called moTMEM106B; murine TMEM106B
The experiment is described as follows: FACS Neuro2a.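 Also: flow cytometry of antibody binding to cells: hybridoma supernatant or purified antibody at 10 µg/ml, 1 h on ice, secondary detection, propidium iodide–positive dead cells gated out.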
Experimental: as §2, §3
B1 yielded an MFI of 470 MFI.

B2 displayed an MFI of 300 MFI.

B3 returned an MFI of 385 MFI.

For the molecule B4, the MFI turned out to be 927 MFI.

B5 came in with an MFI of 3040 MFI.

Consider B6, for which the MFI worked out at 2140 MFI.

B7: the MFI came to 1930 MFI.

B8: the MFI is 2710 MFI.

On to B9, for which the MFI was 706 MFI.

For B10, the MFI stood at 604 MFI.

On to B11, for which the MFI amounted to 1040 MFI.

The next experiment has as its target T1, human TMEM106B. The experiment is described as follows: FACS HeLa.
As to B1, the MFI stood at 660 MFI.

Regarding B2, the MFI was 307 MFI.

Molecule B3 returned an MFI of 437 MFI.

B4 had an MFI of 1380 MFI.

Turning to B5, the MFI is 2660 MFI.

In the case of B6, the MFI came to 2430 MFI.

Take B7: the MFI is 1920 MFI.

Turning to B8, the MFI stood at 2540 MFI.

With B9, the MFI was 1200 MFI.

B10: the MFI came to 596 MFI.

With B11, the MFI was 1870 MFI.

The target in another experiment is T1, human TMEM106B. The experiment is described as follows: FACS HEK+huTMEM 0.1 ug/ml.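 Also: flow cytometry binding of purified mouse IgG antibodies to HEK293 cells transiently expressing TMEM106B, read as median fluorescence intensity on live cells (propidium iodide negative gating).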
In turn, B1 had an MFI of 2060 MFI.

Turning to B2, the MFI turned out to be 364 MFI.

B3 returned an MFI of 1910 MFI.

In the case of B4, the MFI amounted to 19100 MFI.

As for B5, the MFI came out at 19700 MFI.

On to B6, for which the MFI turned out to be 29800 MFI.

For B7, the MFI was determined as 10600 MFI.

In turn, B8 showed an MFI of 28300 MFI.

B9 showed an MFI of 15600 MFI.

With B10, the MFI came to 21000 MFI.

In the case of B11, the MFI is 16200 MFI.

(Values after patent US20200339680A1 (Alector, published 2020).)
